Here are results for 18 molecules from patent US20170212130A1 (ROCKEFELLER UNIVERSITY, published 2017).

Assay [1] has as its target T1, GFP-His6 (eGFP) (Aequorea victoria, UniProt P42212 2-238 = GFP).
T1 construct: SPR and bead assays speak only of recombinant GFP or eGFP; also called recombinant GFP; A. victoria (Av) GFP
The experiment in a line: bead binding assay (footnote 1).

Assay [2] addresses T2, DsRed (Discosoma sp., UniProt Q9U6Y8 1-225).
T2 construct: Recombinant fluorescent protein; construct not described; also called standard DsRed; DsRed from Discosoma (Ds)
The assay is described as follows: bead binding: nanobody-Dynabeads + fluorescent protein, eluate on SDS-PAGE.

The target of assay [3] is T1, GFP-His6 (eGFP). The experiment in a line: SPR, GFP immobilized, Langmuir fit; unit inferred. For orientation: Surface plasmon resonance follows binding to a sensor surface in real time, without labels.
In assay [4] the target is T1, GFP-His6 (eGFP). The assay is described as follows: SPR, GFP immobilized.
For assay [5], the target named is T1, GFP-His6 (eGFP). The experiment in a line: SPR, GFP immobilized, Langmuir fit; no unit printed [continued].
Assay [6] has as its target T1, GFP-His6 (eGFP). The experiment in a line: label under gel lane; legend: in vitro Kd for GFP by SPR.
The target in assay [7] is T1, GFP-His6 (eGFP). The experiment in a line: SPR, GFP immobilized, Langmuir fit; no unit printed [continued]. The source holds these as a separate data set.
The target of assay [8] is T3, mCherry (Discosoma).
T3 construct: Immunogen is mCherry-His6; SPR says recombinant mCherry; also called recombinant mCherry-His6; Discosoma mCherry
The experiment in a line: SPR, mCherry immobilized.

Assay [9] addresses T1, GFP-His6 (eGFP). The assay is described as follows: bead binding: nanobody-Dynabeads + fluorescent protein, eluate on SDS-PAGE.
Assay [10] has as its target T3, mCherry. The experiment in a line: SPR, mCherry immobilized, Langmuir fit; unit inferred.
Assay [11] addresses T3, mCherry. The assay is described as follows: label under gel lane; legend: in vitro Kd for mCherry by SPR.

T2 sequence (Q9U6Y8 whole entry): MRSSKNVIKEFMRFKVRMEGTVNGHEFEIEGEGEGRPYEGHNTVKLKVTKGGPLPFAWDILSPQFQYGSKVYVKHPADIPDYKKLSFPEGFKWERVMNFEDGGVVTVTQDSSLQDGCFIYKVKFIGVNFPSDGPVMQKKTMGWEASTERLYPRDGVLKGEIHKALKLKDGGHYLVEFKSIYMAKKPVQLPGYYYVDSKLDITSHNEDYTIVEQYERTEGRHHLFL

B1: LaG-19 (VHH)
VHH: QVQLVESGGGLVQAGGSLRLSCAASGPTGAMAWFRQAPGKEREFVGGISRSGTDTYYVDSVKGRFTIDRDNAKNTVYLQMNSLKPEDTAVYYCAARRSQILFTSRTDYEFWGQGTQVTVS
Regarding B1, the Kd – broadly, the free concentration of one partner at which half of the binding sites on the other are occupied at equilibrium, for simple one-to-one binding – in [1] is 24.6 nM. In assay [2], the binding result was “no binding”.

B2: LaG-10 (VHH)
VHH: QVQLVESGGGLVQAGDSLQLSCAFSGGTFSTYAMGWFRQAPGKEREFVGGISRSGATTNYEDSVKGRFTISKDNTKNTVYLQLNSLKPEDTAVYYCAARNNILPVTTIDKYEYWGQGTQVTV
For B2, the dissociation constant Kd in [3] and in assay [4] was 97 nM each time.

B3: LaG-30 (VHH)
VHH: QVQLVESGGGLVQAGGSLRLSCAASGRTFSTSAMGWFRQAPGREREFVAAITWTVGNTIYGDSMKGRFTISRDRTKNTVDLQMDSLKPEDTAVYYCTARSRGFVLSDLRSVDSFDYKGQGTQVTVS
Turning to B3, the equilibrium dissociation constant (Kd) in assay [4] and in assay [5] was 0.5 nM each time. For the same molecule, the binding result in assay [2] was “no binding”.

B4: LaG-14 (VHH)
VHH: QVQLVESGGGLVQAGGSLRLSCAASGRTYSISAMGWFRQAPGKEREFVAGISRSGGTTYYADPVKGRFTISRDNAKNTVYLQMNSLKPEDTAVYYCAARARGWTTFPAREIEYDYWGQGTQVTV
In the case of B4, the Kd in assay [3] and in [4] was 1.9 nM in each case. In addition, the binding result in assay [2] was “no binding”.

B5: LaG-42 (VHH)
VHH: DVQLVESGGGLVQAGDSLRLSCAASGPTGAMAWFHQGLGKEREFVGGISPSGDNIYYADSVKGRFTIDRDNAKNTVSLQMNSLKPEDMGVYYCAARRRVTLFTSRTDYEFWGRGTQVTVS
Consider B5, for which, in assay [4], the Kd was 600 nM.

B6: LaG-29 (VHH)
VHH: QVQLVESGGGLVQAGAALRLSCAASGGTFSFYNMGWFRQAPGKEREFVVSISRSGGGTAYADSVKGRFTISRDNAKNTAYLQMNSLKPEDTAVYYCAAGLRDWGREGEPHYWGQGTQVTVS
Turning to B6, the Kd in [4] and in assay [5] was 110 nM in each case.

B7: LaG-35 (VHH)
VHH: DVQLVESGGGLVQAGGSLRLSCTVSGRTFSNYAMGWFRQAPGKEREFVAGISWTGGHTLYTDSVKGRFTISRDNAKNTVYLQMNSLKPEDTALYYCAADRAADFFAQRDEYDYWGQGTQVTVS
For the molecule B7, the values for the Kd in assay [1] and in assay [6] were 23.5 nM and 24 nM, respectively.

B8: LaG-11 (VHH)
VHH: DVQLVESGGRSVRAGDSLRLSCLASGGTFSLYAMGWFRQAPGKEREFVAAVTWSGGSTYYTDSVKGRFSISRDNAKNTVYLQMNSLKPEDTAVYYCAVRTSGFFGSIPVTERAFDYWGQGTQVTVS
B8: the Kd in assay [1] and in assay [6] was 22900 nM throughout.

B9: LaG-21 (VHH)
VHH: QVQLVESGGGLVQAGGSLRLSCAASGPTGAMAWFRQAPGMEREFVGGISGSETDTYYADFVKGRLTVDRDNVKNTVDLQMNSLKPEDTAVYYCAARRRVTLFTSRADYDFWGQGTQVTVS
Regarding B9, in [4], the equilibrium dissociation constant (Kd) amounted to 7 nM. In addition, the binding result in [2] is on record as “no binding”.

B10: LaG-6 (VHH)
VHH: QVQLVESGGGLVQAGGSLRLSCAASGRTFSTSAMAWFRQAPGKEREFAAGITWISSSTYYTDSVKGRFTISRDNAKNTVYLQMNSLKPEDTAVYYCAAKSEGYFGFPRVENEYPYWGQGTQVTV
With B10, the equilibrium dissociation constant (Kd) in [3] and in assay [4] was 310 nM throughout.

B11: LaG-17 (VHH)
VHH: DVQLVESGGGLVQAGGSLRLSCAASGRTISMAAMSWFRQAPGKEREFVAGISRSAGSAVHADSVKGRFTISRDNTKNTLYLQMNSLKAEDTAVYYCAVRTSGFFGSIPRTGTAFDYWGQGTQVTVS
In turn, B11 showed a Kd in [3] of 48 nM. The binding result in assay [2] is “no binding”.

B12: LaG-3 (VHH)
VHH: QVQLVESGGGLVQAGGSLRVSCAASGRTYSDYAMGWFRQAPGKERDFVAGISGSGGDTYYADSVKGRFTISRDNAKNTMYLQMNSLKPEDTAVYFCAARTGTVLFTSRVDYRYWGQGTQVTV
For the molecule B12, the dissociation constant (Kd) in assay [3] and in assay [4] was 25 nM throughout. In addition, the binding result in assay [2] was “no binding”.

B13: LaG16-LaG2 (3xFLAG) (other)
single-chain fusion of two VHH (part 1 of 2): MAQVQLVESGGRLVQAGDSLRLSCAASGRTFSTSAMAWFRQAPGREREFVAAITWTVGNTILGDSVKGRFTISRDRAKNTVDLQMDNLEPEDTAVYYCSARSRGYVLSVLRSVDSYDYWGQGTQVTVS
single-chain fusion of two VHH (part 2 of 2): MAQVQLVESGGGLVQAGGSLRLSCAASGRTFSNYAMGWFRQAPGKEREFVAAISWTGVSTYYADSVKGRFTISRDNDKNTVYVQMNSLIPEDTAIYYCAAVRARSFSDTYSRVNEYDYWGQGTQVTV
notes: Member of the group m24; also called LaG16-LaG2 3xFLAG Dimer
Take B13: the Kd stood at 0.27 nM in assay [7] and 0.268 nM in assay [4].

B14: LaG-26 (VHH)
VHH: QVQLVESGGGLVQAGASMRLSCAASGITFSLYHWVWFRQAAGREHEFVAGIIRSGGETLSADSVKDRFIISRDDAKNTLYLQMNMLQPEDTATYYCAATHRADWYSSAFREYIFRGQGTQVTVS
For B14, the equilibrium dissociation constant (Kd) in [4] and in assay [5] was 2.6 nM throughout. For the same molecule, in assay [2], the binding result is given as “no binding”.

B15: LaM-3 (VHH)
VHH: QVQLVQSGGGLVQAGGSLRLSCAASGRTFSDIAVGWFRQTPGKEREFVAAISWSGLIINYGDSVEDRFTISRDNAKSAVYLQMNSLKPEDTAVYYCAARIGMNYYYAREIEYPYWGQGTQVTVS
Consider B15, for which the Kd in assay [8], in assay [10] and in [11] was 1.9 nM in each case. Moreover, the binding result in assay [9] is “no binding”.

B16: LaG-37 (VHH)
VHH: QVQFVESGGGTVQDGDFLRLSCTASGDTFSNYHAGWFRQPPGREREFVAAISWTGEGTLYADSVKGQFTISRDNAKNAMYLQMNRLKPEDTAVYYCAAARSVGFTWRSSKSNDYAYWGQGTQVTV
B16: the figures for the equilibrium dissociation constant (Kd) in [4], in [5] and in [6] were 24 nM, 24 nM and 25 nM, respectively.

B17: LaG-27 (VHH)
VHH: DVQLVESGGGLVQAGGSLRLSCTASGLTISTYNIGWFRQAPGKEREFVGIIIRNGDTTYYADSVKGRFTISRDNAKNTVYLQMNSVKPADAAVYSCGATVRAGAAAEQYNSYIFRGQGTQVTV
As for B17, the equilibrium dissociation constant (Kd) in [4] and in assay [5] was 9.5 nM in each case. In [2], the binding result was “no binding”.

B18: LaG-16 (VHH)
VHH: QVQLVESGGRLVQAGDSLRLSCAASGRTFSTSAMAWFRQAPGREREFVAAITWTVGNTILGDSVKGRFTISRDRAKNTVDLQMDNLEPEDTAVYYCSARSRGYVLSVLRSVDSYDYWGQGTQVTVS
modifications: Conjugated to Alexa Fluor 568 (succinimidyl ester, on amines) in the microscopy result. The letters are unchanged.
notes: Conjugated to Alexa Fluor 568 for microscopy
For B18, the Kd was determined as 0.69 nM in [3] and 0.7 nM in assay [4]. Moreover, the binding result in assay [2] is recorded as “no binding”.
